Laboratory results taken from the supplement of paper PMC7877785.
± gives the uncertainty stated by the source.

Test: self-splicing fitness, log relative to wild type (ln ratio); higher = more splicing; Tetrahymena group I intron in knt gene, E. coli kanamycin selection, DiMSum; sequences stand for … in CUCUCU…GGAGGGAAAAGUUAUCAGGCAUGCACCUGGUAGCUAGUCUUUAAACCAAUAGAUUGCAUCGGUUUAAAAGGCAAGACCGUCAAAUUGCGGGAAAGGGGUCAACAGCCGUUCAGUACCAAGUCUCAGGGGAAACUUUGAGAUGGCCUUGCAAAGGGUAUGGUAAUAAGCUGACGGACAUGGUCCUAACCACGCAGCCAAGUCCUAAGUCAACAGAUCUUCUGUUGAUAUGGAUGCAGUUCACAGACUAAAUGUCGGUCGGGGAAGAUGUAUUCUUCUCAUAAGAUAUAGUCGGACCUCUCCUUAAUGGGAGCUAGCGGAUGAAGUGAUGCAACACUGGAGCCGCUGGGAACUAAUUUGUAUGCGAAAGUAUAUUGAUUAGUUUUGGAGUACUCGUGGUCG
How it was run: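 Pooled colonies went to amplicon sequencing on an Illumina HiSeq 2500 after six replicate transformations. The plates were LB agar with 100 μg/mL carbenicillin, 50 μM IPTG and 0.2% rhamnose, with or without 25 μg/mL kanamycin, incubated overnight at 37°C or 30°C. The E. coli BL21(DE3) library had all eight P1ex-region intron nucleotides randomised, the intron placed in the knt kanamycin-resistance gene on pET-22b(+). DiMSum fitness is the error-weighted combination of replicate fold changes, kanamycin against none, normalised to wild type.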

UAAAAGCAAUAUUACGUUGU
self-splicing fitness (ln) (30 °C): -3.71 ± 0.14
self-splicing fitness (ln) (37 °C): -1.96 ± 0.14

UACGAGCAAUAUUACGAUCA
self-splicing fitness (ln) (30 °C): -1.89 ± 0.15
self-splicing fitness (ln) (37 °C): -0.737 ± 0.13

AGUUAGCAAUAUUACGCCGA
self-splicing fitness (ln) (30 °C): -2.78 ± 0.46
self-splicing fitness (ln) (37 °C): -1.71 ± 0.39

UCUCAGCAAUAUUACGAAUU
self-splicing fitness (ln) (30 °C): -3.12 ± 0.13
self-splicing fitness (ln) (37 °C): -1.77 ± 0.15

ACGUAGCAAUAUUACGGUCU
self-splicing fitness (ln) (30 °C): -0.728 ± 0.078
self-splicing fitness (ln) (37 °C): -0.139 ± 0.097

AACUAGCAAUAUUACGGCGG
self-splicing fitness (ln) (30 °C): -1.21 ± 0.087
self-splicing fitness (ln) (37 °C): -0.787 ± 0.11

CAGCAGCAAUAUUACGCAGG
self-splicing fitness (ln) (30 °C): -2.56 ± 0.12
self-splicing fitness (ln) (37 °C): -0.864 ± 0.11

AGUAAGCAAUAUUACGAUCG
self-splicing fitness (ln) (30 °C): -0.735 ± 0.17
self-splicing fitness (ln) (37 °C): -0.248 ± 0.19

UCGUAGCAAUAUUACGAUUA
self-splicing fitness (ln) (30 °C): -2 ± 0.3
self-splicing fitness (ln) (37 °C): -0.78 ± 0.17

UUUCAGCAAUAUUACGGCGG
self-splicing fitness (ln) (30 °C): -1.72 ± 0.15
self-splicing fitness (ln) (37 °C): -0.833 ± 0.18

GUGAAGCAAUAUUACGGCGA
self-splicing fitness (ln) (30 °C): 0.0822 ± 0.15
self-splicing fitness (ln) (37 °C): 0.297 ± 0.18

UCGUAGCAAUAUUACGGUUG
self-splicing fitness (ln) (30 °C): -2.14 ± 0.12
self-splicing fitness (ln) (37 °C): -1.05 ± 0.15

CCCAAGCAAUAUUACGCGGA
self-splicing fitness (ln) (30 °C): -1.6 ± 0.093
self-splicing fitness (ln) (37 °C): -0.459 ± 0.097

ACCGAGCAAUAUUACGGUUA
self-splicing fitness (ln) (30 °C): -1.33 ± 0.18
self-splicing fitness (ln) (37 °C): -1.85 ± 0.17

AAACAGCAAUAUUACGCUUG
self-splicing fitness (ln) (30 °C): -1.9 ± 0.096
self-splicing fitness (ln) (37 °C): -0.605 ± 0.098

CCCCAGCAAUAUUACGCAGG
self-splicing fitness (ln) (30 °C): -3.34 ± 0.12
self-splicing fitness (ln) (37 °C): -2.52 ± 0.16

UAGCAGCAAUAUUACGCUCA
self-splicing fitness (ln) (30 °C): -0.152 ± 0.095
self-splicing fitness (ln) (37 °C): 0.307 ± 0.1

GCGUAGCAAUAUUACGUCGU
self-splicing fitness (ln) (30 °C): -2.13 ± 0.12
self-splicing fitness (ln) (37 °C): -2.04 ± 0.18

ACUCAGCAAUAUUACGAGCG
self-splicing fitness (ln) (30 °C): -0.49 ± 0.061
self-splicing fitness (ln) (37 °C): -0.185 ± 0.071

AAAGAGCAAUAUUACGCACG
self-splicing fitness (ln) (30 °C): -2.69 ± 0.23
self-splicing fitness (ln) (37 °C): -2.22 ± 0.26

UGCCAGCAAUAUUACGCUCU
self-splicing fitness (ln) (30 °C): -1.42 ± 0.079
self-splicing fitness (ln) (37 °C): 0.293 ± 0.098

UAAUAGCAAUAUUACGUUAC
self-splicing fitness (ln) (30 °C): -4.32 ± 0.34
self-splicing fitness (ln) (37 °C): -2.2 ± 0.23

AUAAAGCAAUAUUACGAUGC
self-splicing fitness (ln) (30 °C): -1.39 ± 0.08
self-splicing fitness (ln) (37 °C): -0.56 ± 0.12

GGUGAGCAAUAUUACGUUUC
self-splicing fitness (ln) (30 °C): -3.36 ± 0.29
self-splicing fitness (ln) (37 °C): -1.68 ± 0.25

GUAUAGCAAUAUUACGUUAC
self-splicing fitness (ln) (30 °C): -3.43 ± 0.41

GGUCAGCAAUAUUACGAGGC
self-splicing fitness (ln) (30 °C): -3.61 ± 0.3
self-splicing fitness (ln) (37 °C): -2.84 ± 0.43

CGGAAGCAAUAUUACGGUUC
self-splicing fitness (ln) (30 °C): -3.49 ± 0.3
self-splicing fitness (ln) (37 °C): -2.85 ± 0.25

UUGCAGCAAUAUUACGUGUU
self-splicing fitness (ln) (30 °C): -3.1 ± 0.12
self-splicing fitness (ln) (37 °C): -2.47 ± 0.13

AUAAAGCAAUAUUACGCUGG
self-splicing fitness (ln) (30 °C): -1.43 ± 0.088
self-splicing fitness (ln) (37 °C): -0.293 ± 0.13

UCACAGCAAUAUUACGCCCC
self-splicing fitness (ln) (30 °C): -0.433 ± 0.3
self-splicing fitness (ln) (37 °C): -1.51 ± 0.41

UGGAAGCAAUAUUACGAGUC
self-splicing fitness (ln) (30 °C): -2.78 ± 0.29
self-splicing fitness (ln) (37 °C): -3.37 ± 0.33

AAGUAGCAAUAUUACGAUGC
self-splicing fitness (ln) (30 °C): -2.76 ± 0.16
self-splicing fitness (ln) (37 °C): -0.209 ± 0.15

AAGAAGCAAUAUUACGUGCA
self-splicing fitness (ln) (30 °C): -0.663 ± 0.08
self-splicing fitness (ln) (37 °C): -0.0733 ± 0.1

GCCCAGCAAUAUUACGCCUA
self-splicing fitness (ln) (30 °C): -1.9 ± 0.18
self-splicing fitness (ln) (37 °C): -0.261 ± 0.12

UAUGAGCAAUAUUACGAAAG
self-splicing fitness (ln) (30 °C): -2.55 ± 0.39

GCCGAGCAAUAUUACGACAA
self-splicing fitness (ln) (30 °C): -3.38 ± 0.34
self-splicing fitness (ln) (37 °C): -2.05 ± 0.24

UCAAAGCAAUAUUACGCAAG
self-splicing fitness (ln) (30 °C): -2.18 ± 0.14
self-splicing fitness (ln) (37 °C): -1.48 ± 0.15

AUACAGCAAUAUUACGCCUG
self-splicing fitness (ln) (30 °C): -1.94 ± 0.12
self-splicing fitness (ln) (37 °C): 0.29 ± 0.13

AAACAGCAAUAUUACGGUCU
self-splicing fitness (ln) (30 °C): -0.15 ± 0.059
self-splicing fitness (ln) (37 °C): -0.161 ± 0.064

UGUCAGCAAUAUUACGGAUC
self-splicing fitness (ln) (30 °C): -1.89 ± 0.08
self-splicing fitness (ln) (37 °C): -0.775 ± 0.075

UGCCAGCAAUAUUACGAUGG
self-splicing fitness (ln) (30 °C): -3.49 ± 0.2
self-splicing fitness (ln) (37 °C): -2.16 ± 0.18

ACAUAGCAAUAUUACGUGCU
self-splicing fitness (ln) (30 °C): -0.99 ± 0.072
self-splicing fitness (ln) (37 °C): -1.1 ± 0.085

ACGAAGCAAUAUUACGACAC
self-splicing fitness (ln) (30 °C): -2.4 ± 0.13
self-splicing fitness (ln) (37 °C): -0.952 ± 0.14

UGCCAGCAAUAUUACGCGCU
self-splicing fitness (ln) (30 °C): -1.3 ± 0.12
self-splicing fitness (ln) (37 °C): -0.531 ± 0.17

AGAUAGCAAUAUUACGAUAC
self-splicing fitness (ln) (30 °C): -3.11 ± 0.26
self-splicing fitness (ln) (37 °C): -0.943 ± 0.19

GUAAAGCAAUAUUACGCCGU
self-splicing fitness (ln) (30 °C): -0.433 ± 0.085
self-splicing fitness (ln) (37 °C): 0.561 ± 0.11

AUUUAGCAAUAUUACGCCAC
self-splicing fitness (ln) (30 °C): -3.24 ± 0.48
self-splicing fitness (ln) (37 °C): -1.36 ± 0.35

GUGAAGCAAUAUUACGGAGA
self-splicing fitness (ln) (30 °C): -2.03 ± 0.32
self-splicing fitness (ln) (37 °C): -1.19 ± 0.47

GGAGAGCAAUAUUACGUAUC
self-splicing fitness (ln) (30 °C): -2.61 ± 0.34
self-splicing fitness (ln) (37 °C): -0.193 ± 0.23

UUACAGCAAUAUUACGCUGG
self-splicing fitness (ln) (30 °C): -4.24 ± 0.32
self-splicing fitness (ln) (37 °C): -2.08 ± 0.23

UUGUAGCAAUAUUACGUUGC
self-splicing fitness (ln) (37 °C): -2.29 ± 0.46

CCCAAGCAAUAUUACGCAAU
self-splicing fitness (ln) (30 °C): -4.46 ± 0.31
self-splicing fitness (ln) (37 °C): -1.16 ± 0.17

UGCUAGCAAUAUUACGGCGG
self-splicing fitness (ln) (30 °C): -1.15 ± 0.16
self-splicing fitness (ln) (37 °C): -0.887 ± 0.23

AUGCAGCAAUAUUACGCUUU
self-splicing fitness (ln) (30 °C): -2.72 ± 0.11
self-splicing fitness (ln) (37 °C): -1.75 ± 0.11

AAAGAGCAAUAUUACGUACU
self-splicing fitness (ln) (30 °C): -1.21 ± 0.14
self-splicing fitness (ln) (37 °C): -0.952 ± 0.15

AGGUAGCAAUAUUACGAUUG
self-splicing fitness (ln) (30 °C): -3.575 ± 0.026
self-splicing fitness (ln) (37 °C): -2.44 ± 0.04

GGGCAGCAAUAUUACGCAGU
self-splicing fitness (ln) (30 °C): -0.715 ± 0.14
self-splicing fitness (ln) (37 °C): -0.784 ± 0.18

AUCGAGCAAUAUUACGGUGG
self-splicing fitness (ln) (37 °C): -2.04 ± 0.36

GGAGAGCAAUAUUACGAAGC
self-splicing fitness (ln) (30 °C): -3.17 ± 0.37

UCCUAGCAAUAUUACGUCUU
self-splicing fitness (ln) (30 °C): -4.03 ± 0.23
self-splicing fitness (ln) (37 °C): -2.05 ± 0.14

AAUAAGCAAUAUUACGUAAU
self-splicing fitness (ln) (30 °C): -1.38 ± 0.1
self-splicing fitness (ln) (37 °C): -0.587 ± 0.13

UAUUAGCAAUAUUACGAACU
self-splicing fitness (ln) (30 °C): -1.27 ± 0.11
self-splicing fitness (ln) (37 °C): -0.806 ± 0.13

GUUAAGCAAUAUUACGCCGG
self-splicing fitness (ln) (37 °C): -0.148 ± 0.27

UUGGAGCAAUAUUACGGCGG
self-splicing fitness (ln) (30 °C): -2.99 ± 0.33
self-splicing fitness (ln) (37 °C): -1.88 ± 0.22

UAAUAGCAAUAUUACGCUCU
self-splicing fitness (ln) (30 °C): -1.03 ± 0.14
self-splicing fitness (ln) (37 °C): -0.42 ± 0.18

UUGUAGCAAUAUUACGGCUG
self-splicing fitness (ln) (30 °C): -2.35 ± 0.23
self-splicing fitness (ln) (37 °C): -0.373 ± 0.22

GUGAAGCAAUAUUACGUGUC
self-splicing fitness (ln) (30 °C): -2.89 ± 0.11
self-splicing fitness (ln) (37 °C): -1.83 ± 0.12

UAAAAGCAAUAUUACGGCCC
self-splicing fitness (ln) (30 °C): -2.11 ± 0.34
self-splicing fitness (ln) (37 °C): -1.28 ± 0.33

UCGAAGCAAUAUUACGGAGU
self-splicing fitness (ln) (30 °C): -3.99 ± 0.28
self-splicing fitness (ln) (37 °C): -1.03 ± 0.15

UCUUAGCAAUAUUACGUUGA
self-splicing fitness (ln) (30 °C): -2.76 ± 0.22
self-splicing fitness (ln) (37 °C): -1.94 ± 0.18

GUCUAGCAAUAUUACGGAAG
self-splicing fitness (ln) (30 °C): -0.159 ± 0.09
self-splicing fitness (ln) (37 °C): 0.218 ± 0.12

GGUAAGCAAUAUUACGUGGA
self-splicing fitness (ln) (30 °C): -2.91 ± 0.21
self-splicing fitness (ln) (37 °C): -2.52 ± 0.2

GCAUAGCAAUAUUACGUGCC
self-splicing fitness (ln) (30 °C): -3.42 ± 0.21
self-splicing fitness (ln) (37 °C): -1.03 ± 0.29

CUAAAGCAAUAUUACGCUUC
self-splicing fitness (ln) (30 °C): -3.03 ± 0.22

UCUUAGCAAUAUUACGAUGG
self-splicing fitness (ln) (30 °C): -0.765 ± 0.15
self-splicing fitness (ln) (37 °C): 0.551 ± 0.15

GUCAAGCAAUAUUACGACGA
self-splicing fitness (ln) (30 °C): -3.52 ± 0.29
self-splicing fitness (ln) (37 °C): -1.88 ± 0.18

AAACAGCAAUAUUACGUAAA
self-splicing fitness (ln) (30 °C): -2.37 ± 0.068
self-splicing fitness (ln) (37 °C): -1.13 ± 0.074
